Values joined by “and” are separate entries in the source; they are usually repeats but may differ in a detail not shown here. Equal values may be shown once.
Assays:
Assay in all cases: MATE ELISA, interaction with various receptors (Example 55)
Format in all cases: binding
Details in all cases: Table 11; three replicate values
CD16a 158V = tested on: CD16a 158V
Description: (§1) Coat ELISA plates (Costar 3922) using Neutravidin (Thermo 31000) at 5 μg/ml in PBS (100 μl/well) for 1 hour at 37° C. Plates were washed 4 times with PBST (PBS, 0.05% Tween 20-200 μl, 1 minute/wash) then blocked using 200 μl 5% bovine serum albumin (BSA, Heat Shock, Fraction V-American Bio AB01088-00100) in PBST for 2 hours at 25° C. with moderate shaking. BSA was removed and plates were washed. […] Protein was removed and plates were washed. MATE labeled antibodies diluted to 1 μg/ml in PBSTB (100 μl/well) were added and incubated for 1 hour at 25° C. with gentle shaking. Wash plates. HRP labeled Mouse Anti-Human IgG, F(ab′)2 (Jackson Immuno Research 209-035-097) diluted 1:2500 in PBSTB was added (100 μl/well) and incubated for 1 hour at 25° C. with gentle shaking. Wash plates. Substrate (Super Signal ELISA Pico Chemiluminescent Substrate-Thermo 37069) was added (100 μl/well) and plates were incubated for 5 minutes at 25° C. with gentle shaking. Luminescence was then measured on the Biotek Synergy H1 microplate reader.
(§2) In some embodiments, “stock” is antibody only, and “control” is an antibody that went through the same procedure except using DMSO only as opposed to a compound. When contacted with targeting moieties such as antibodies in the Examples, compounds, e.g., I-95, I-96, etc. can react through their reactive groups
(§3) [drawing 887] with reactive groups of targeting moieties (e.g., —NH2) to form conjugates by forming amide groups (—C(O)NH—).

CD16a158F = CD16a158F (Homo sapiens, UniProt P08637)
Description: as §1, §2, §3

CD16b = CD16b (Homo sapiens, UniProt O75015)
Description: as §1, §2, §3

CD3ed = CD3ed (Homo sapiens, UniProt P04234+P07766)
Description: as §1, §2, §3

CD32b = target: T1, CD32b (Homo sapiens, UniProt P31994)
T1 sequence (P31994 43-310): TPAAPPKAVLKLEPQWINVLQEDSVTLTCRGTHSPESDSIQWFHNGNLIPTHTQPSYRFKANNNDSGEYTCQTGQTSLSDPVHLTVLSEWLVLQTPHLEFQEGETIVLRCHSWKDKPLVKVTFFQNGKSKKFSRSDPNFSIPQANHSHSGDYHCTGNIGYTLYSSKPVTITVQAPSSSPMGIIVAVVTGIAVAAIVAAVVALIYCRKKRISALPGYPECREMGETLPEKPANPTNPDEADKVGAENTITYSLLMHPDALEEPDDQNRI
Description: as §1, §2, §3

CD38 = CD38 (Homo sapiens, UniProt P28907)
Description: as §1, §2, §3

CD32a H167 = target: T2, CD32a H167 (Homo sapiens, UniProt P12318)
T2 sequence (P12318 36-218 limits assumed): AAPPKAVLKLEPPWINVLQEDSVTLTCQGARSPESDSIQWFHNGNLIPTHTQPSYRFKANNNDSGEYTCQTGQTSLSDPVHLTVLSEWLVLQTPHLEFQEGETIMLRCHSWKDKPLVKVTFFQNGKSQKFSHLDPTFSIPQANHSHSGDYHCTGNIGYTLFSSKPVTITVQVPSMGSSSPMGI
Description: as §1, §2, §3

CD32a-R167 = tested on: CD32a-R167
Description: as §1, §2, §3

CD3ed, sequence (P07766 23-126 limits assumed): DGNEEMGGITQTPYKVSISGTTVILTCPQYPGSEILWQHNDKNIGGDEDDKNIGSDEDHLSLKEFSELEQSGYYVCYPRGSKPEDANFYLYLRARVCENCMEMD
CD3ed, sequence (P04234 22-105 limits assumed): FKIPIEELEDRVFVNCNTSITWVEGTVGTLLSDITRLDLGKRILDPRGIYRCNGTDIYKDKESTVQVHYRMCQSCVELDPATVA
CD16b, sequence (O75015 17-200): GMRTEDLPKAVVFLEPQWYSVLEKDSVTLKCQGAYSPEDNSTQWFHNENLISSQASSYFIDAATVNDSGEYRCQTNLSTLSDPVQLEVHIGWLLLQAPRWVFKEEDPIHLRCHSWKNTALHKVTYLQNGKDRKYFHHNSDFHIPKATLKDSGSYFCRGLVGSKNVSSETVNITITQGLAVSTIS
CD16a158F, sequence (P08637 17-208 limits assumed): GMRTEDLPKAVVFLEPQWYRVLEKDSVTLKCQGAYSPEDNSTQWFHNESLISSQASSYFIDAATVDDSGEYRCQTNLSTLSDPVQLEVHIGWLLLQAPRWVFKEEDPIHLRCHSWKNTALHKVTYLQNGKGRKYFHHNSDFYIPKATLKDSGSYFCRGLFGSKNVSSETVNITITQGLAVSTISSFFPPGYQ

Daratumumab Control: "'control' is an antibody that went through the same procedure except using DMSO only as opposed to a compound"
MATE ELISA Results CD16a 158V (CD16a 158V): 1407940 and 1365053 and 1337882
MATE ELISA Results CD16a 158F (CD16a158F): 82022 and 81780 and 84907
MATE ELISA Results CD16b (CD16b): 3125 and 3086 and 3079
MATE ELISA Results CD3ed (CD3ed): 219 and 257 and 505
MATE ELISA Results CD32b (CD32b): 9479 and 9358 and 9228
MATE ELISA Results CD38 (CD38): 2893900 and 2774268 and 2739576
MATE ELISA Results CD32a H167 (CD32a H167): 485766 and 481839 and 470053
MATE ELISA Results CD32a R157 (CD32a-R167): 125444 and 122409 and 116704
